# In article PMC1931440:
# Target: murine type IV collagen (murine) (UniProt P02463)
# Assay: adherence of recombinant bacteria to collagen-coated wells; intact E. coli EPI300 expressing Hag (~10^7 CFU in PBS with 0.15% gelatin) added to BioCoat murine type IV collagen wells with tissue culture medium; centrifuged 165 x g 5 min; 1 hr at 37°C, 7.5% CO2; washed five times; fixed, crystal violet; bacteria counted per microscopic field, normalized by CFU; negative control E. coli with pCC1.3
# Chain of UniProt P02463 (P02463 173-1669, chain 1 of 2): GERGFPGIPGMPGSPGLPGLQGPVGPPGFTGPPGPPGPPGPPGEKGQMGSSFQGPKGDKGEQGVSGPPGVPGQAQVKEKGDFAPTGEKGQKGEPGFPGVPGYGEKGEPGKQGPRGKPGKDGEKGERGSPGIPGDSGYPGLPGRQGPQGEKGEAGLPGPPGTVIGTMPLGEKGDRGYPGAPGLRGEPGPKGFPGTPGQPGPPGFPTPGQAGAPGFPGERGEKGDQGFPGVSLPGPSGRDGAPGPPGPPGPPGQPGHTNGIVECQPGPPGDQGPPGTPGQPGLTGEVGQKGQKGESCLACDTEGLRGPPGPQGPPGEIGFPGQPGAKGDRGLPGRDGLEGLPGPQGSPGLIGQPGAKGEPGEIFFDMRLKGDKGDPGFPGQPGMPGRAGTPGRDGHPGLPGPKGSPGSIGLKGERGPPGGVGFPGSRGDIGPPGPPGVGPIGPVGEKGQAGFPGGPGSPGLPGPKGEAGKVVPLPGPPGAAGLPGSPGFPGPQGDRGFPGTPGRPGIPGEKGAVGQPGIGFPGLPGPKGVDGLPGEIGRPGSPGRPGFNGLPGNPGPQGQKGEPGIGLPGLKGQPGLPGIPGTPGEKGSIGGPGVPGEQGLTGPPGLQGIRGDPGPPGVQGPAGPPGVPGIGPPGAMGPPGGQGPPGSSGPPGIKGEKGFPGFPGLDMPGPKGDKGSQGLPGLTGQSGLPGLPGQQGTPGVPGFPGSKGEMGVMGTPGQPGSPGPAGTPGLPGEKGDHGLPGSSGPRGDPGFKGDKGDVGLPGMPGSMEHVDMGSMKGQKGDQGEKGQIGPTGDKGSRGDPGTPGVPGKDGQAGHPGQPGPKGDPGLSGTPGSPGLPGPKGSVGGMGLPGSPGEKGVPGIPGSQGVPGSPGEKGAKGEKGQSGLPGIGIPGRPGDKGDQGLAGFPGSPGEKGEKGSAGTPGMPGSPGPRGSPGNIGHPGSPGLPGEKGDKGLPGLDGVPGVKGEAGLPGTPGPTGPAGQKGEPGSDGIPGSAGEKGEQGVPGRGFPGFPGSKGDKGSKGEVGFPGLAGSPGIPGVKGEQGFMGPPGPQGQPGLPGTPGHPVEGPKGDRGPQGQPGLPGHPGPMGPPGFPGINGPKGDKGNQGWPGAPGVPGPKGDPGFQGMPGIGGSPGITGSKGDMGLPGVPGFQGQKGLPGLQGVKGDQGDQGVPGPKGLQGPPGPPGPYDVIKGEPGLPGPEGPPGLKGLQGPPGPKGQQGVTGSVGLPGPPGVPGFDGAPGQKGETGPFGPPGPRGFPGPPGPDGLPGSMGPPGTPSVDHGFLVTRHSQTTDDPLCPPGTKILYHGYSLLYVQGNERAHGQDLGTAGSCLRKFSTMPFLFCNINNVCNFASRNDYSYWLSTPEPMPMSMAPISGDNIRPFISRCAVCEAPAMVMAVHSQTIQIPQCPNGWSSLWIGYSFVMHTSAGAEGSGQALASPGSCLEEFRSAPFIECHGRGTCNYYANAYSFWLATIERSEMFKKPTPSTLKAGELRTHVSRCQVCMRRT
# Chain of UniProt P02463 (P08122 184-1707, chain 2 of 2, further chain): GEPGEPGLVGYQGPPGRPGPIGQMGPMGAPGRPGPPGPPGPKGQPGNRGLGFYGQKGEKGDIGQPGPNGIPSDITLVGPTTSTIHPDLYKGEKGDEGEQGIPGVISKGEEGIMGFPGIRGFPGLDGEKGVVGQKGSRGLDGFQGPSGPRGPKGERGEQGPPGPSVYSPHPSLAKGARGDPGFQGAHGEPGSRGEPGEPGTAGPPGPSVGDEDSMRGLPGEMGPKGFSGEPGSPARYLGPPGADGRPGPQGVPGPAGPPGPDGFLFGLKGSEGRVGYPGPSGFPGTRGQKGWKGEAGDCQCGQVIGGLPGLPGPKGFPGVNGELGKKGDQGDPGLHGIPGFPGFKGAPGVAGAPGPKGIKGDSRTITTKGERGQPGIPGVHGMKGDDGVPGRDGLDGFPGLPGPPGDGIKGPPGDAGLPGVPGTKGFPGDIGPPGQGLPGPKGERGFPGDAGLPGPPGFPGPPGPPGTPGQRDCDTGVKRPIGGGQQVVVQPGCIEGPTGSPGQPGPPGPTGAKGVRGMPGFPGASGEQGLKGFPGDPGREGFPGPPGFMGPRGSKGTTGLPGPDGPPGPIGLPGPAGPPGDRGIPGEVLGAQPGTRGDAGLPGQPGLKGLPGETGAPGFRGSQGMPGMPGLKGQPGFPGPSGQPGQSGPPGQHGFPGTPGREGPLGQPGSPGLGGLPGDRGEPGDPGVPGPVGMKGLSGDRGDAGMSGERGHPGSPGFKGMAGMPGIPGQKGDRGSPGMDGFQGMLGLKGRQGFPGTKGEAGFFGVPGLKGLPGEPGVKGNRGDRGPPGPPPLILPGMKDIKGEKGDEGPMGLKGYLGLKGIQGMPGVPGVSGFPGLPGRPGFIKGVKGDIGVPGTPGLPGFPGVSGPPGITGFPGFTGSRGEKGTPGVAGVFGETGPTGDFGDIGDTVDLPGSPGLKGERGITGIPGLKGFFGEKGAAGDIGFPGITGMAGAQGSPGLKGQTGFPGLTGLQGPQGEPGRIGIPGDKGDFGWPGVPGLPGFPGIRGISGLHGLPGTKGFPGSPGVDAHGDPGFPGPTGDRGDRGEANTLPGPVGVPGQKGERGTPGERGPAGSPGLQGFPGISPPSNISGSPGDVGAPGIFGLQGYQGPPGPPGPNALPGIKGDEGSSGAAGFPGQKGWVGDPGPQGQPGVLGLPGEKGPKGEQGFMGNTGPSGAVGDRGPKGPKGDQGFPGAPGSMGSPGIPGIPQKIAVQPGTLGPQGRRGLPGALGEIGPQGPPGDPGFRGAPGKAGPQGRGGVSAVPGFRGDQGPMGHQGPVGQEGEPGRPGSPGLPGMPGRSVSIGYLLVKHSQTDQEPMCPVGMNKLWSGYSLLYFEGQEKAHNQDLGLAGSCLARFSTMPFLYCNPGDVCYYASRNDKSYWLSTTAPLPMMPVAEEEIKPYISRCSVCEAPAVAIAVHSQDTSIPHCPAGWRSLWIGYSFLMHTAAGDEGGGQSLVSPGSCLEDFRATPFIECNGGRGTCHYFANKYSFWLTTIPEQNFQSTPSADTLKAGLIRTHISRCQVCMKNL
row,Substance,fold adherence to collagen over the negative control (E. coli with pCC1.3) [fold]
1,Moraxella catarrhalis strain O12E Hag protein (natural protein),35
2,Moraxella catarrhalis strain O35E Hag protein (wild type) (natural protein),80
3,Moraxella catarrhalis strain V1171 Hag protein (natural protein),35
